Here are results for 17 sequences from a protein production outcome set (Wang et al. 2014).
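Note: failed if final PepcDB status was selected cloned or expressed and not failed if soluble or beyond.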

This series in a line: label from the status in PepcDB records.
Consider “MEEKANTGQVIIVLTEHLTFGTLLIPYMAEKSDDGTYQLIEQAFHASPEAISRMNEAEQQAIDIASHYTEKYLMGIYSREKTVSRFLRKLSEDPERVKNNIRPFIEKKMQEMLTLIRHHNLPLYQKQVGSKLLYAHHAYHVHPHDVEIRFTFLADETNFRYQLQCYYDGQPLSLSEQKPVIVLTSSPSALLLGMELYFFPHIESVRILPFTKKKKISVPASQIEKYIDNIVIPIARYHEITTQGLNIIEETYACEAVLSLEDTIYDEQMLRLSFRYGDQSFTPDTVTEMKKIIYRNDFGEIFFFRRDSDAEEEKLRMLTDSGLQRVSDVHFKLSPDAPEKTITEWISTYREMLQQSFLLTGNMGNTPYCLDEIRIEQSCDDEPDWFELHITVVIGNLRIPFSRFRKHILEEKREFLLPDGRMILLPEEWFSKYGNLLELGTQTETGIRLKPTFVGAVQSALEENGPKNLLFKREIRNVPVPQGLNAKLRPYQQKGFSWMVQLNKQGFGGCLADDMGLGKTLQTLTLLQYIYKPLSPDAVTAPMKPVFTETTASDSQPDKECTANNPPVREQIADAEGQFSLFSFSSEDELLPDAREIREKNRPKEDDHRQEHGKNSRKPATLIVVPTSLLHNWRREAKRFTTLAIAEYNSNTAFPKGHPEKFFNHFHLIFTTYGMMRNNIDILRSYTFEYIVLDESQNIKNNDSLTFRSVIQLQGKHRIALTGTPIENSLKDLWAQFRFLQPDLLGEESTFHKQFIIPIRQGNVRMEKRLQQIIAPFILRRSKSEVAPELPPLTEETIYCAMSEKQGESYEQEKNSLRNILLQQPENKDRYHMFSILNGILRLRQLACHPQLIFPDFDGVSGKTEQIIDTFDTLRSEGHKVLIFSSFVRHLEILAEVFRQRGWKYALLTGSTNNRPSEIAHFTEQKDVQAFLISLKAGGVGLNLTQADYVFIIDPWWNPAAESQAIARAHRIGQDKQVIAYRFITQNSIEEKILQLQEDKRRLAETFITDSEALPALSNEQWADLLK”, for which the protein production result is “failed”.

Regarding “MEEKKDFYDTDELRDFMALVEKTNDIKKIALFRILAFTGIRKGELLALEWKDYRKSTLDINKAISHSPVGYEILPPKANSNRLLSLDEKTCKILDELHQTYPESTRIFESENGGMLSPSKPRKWLLEITKEKEIEPIRIHAFRHTHASLLFESGMSLKQVQYRLGHADLKTTMNIYTHITKLEHHHHHH”, the protein production entry is recorded as “not failed”.

Turning to “MEENLISMREDHSFHVRYRMEASCLELALEGERLCKSGDCRAGVSFFEAAVQVGTEDLKTLSAIYSQLGNAYFYLHDYAKALEYHHHDLTLARTIGDQLGEAKASGNLGNTLKVLGNFDEAIVCCQRHLDISRELNDKVGEARALYNLGNVYHAKGKSFGCPGPQDVGEFPEEVRDALQAAVDFYEENLSLVTALGDRAAQGRAFGNLGNTHYLLGNFRDAVIAHEQRLLIAKEFGDKAAERRAYSNLGNAYIFLGEFETASEYYKKTLLLARQLKDRAVEAQSCYSLGNTYTLLQDYEKAIDYHLKHLAIAQELNDRIGEGRACWSLGNAYTALGNHDQAMHFAEKHLEISREVGDKSGELTARLNLSDLQMVLGLSYSTNNSIMSENTEIDSSLNGVRPKLGRRHSMENMELMKLTPEKVQNWNSEILAKQKPLIAKPSAKLLFVNRLKGKKYKTNSSTKVLQDASNSIDHRIPNSQRKISADTIGDEGFFDLLSRFQSNRMDDQRCCLQEKNCHTASTTTSSTPPKMMLKTSSVPVVSPNTDEFLDLLASSQSRRLDDQRASFSNLPGLRLTQNSQSVLSHLMTNDNKEADEDFFDILVKCQGSRLDDQRCAPPPATTKGPTVPDEDFFSLILRSQGKRMDEQRVLLQRDQNRDTDFGLKDFLQNNALLEFKNSGKKSADH”, the protein production result is given as “failed”.

Take “MEENMEKNKIKKIALIFNILQVIALAVFEVVLFRLVSYKNKLILDYVPAKYFIILEVVLVAITIIPFLIRKGKKTSIISMVISILMAIVLFATSILGVVYDKDIKNVLNKADQTIDDVVENSKLSTEEYGVYILKSDEAEELKDIENYNLGYNLSYAKDETDSVLKNVLAKANNKLIANEYDDLLKMADELLNTEKTAFIFNQAMLDLIENAGDDTNDGKNNGIYKNFTNKIKCIYVVNVKTAVKEYGGDKNVTKECFNVYISGIDTEGDVTAKSRSDVNIIMSINPVTHQVLLLSTPRDYYVPLSISNGVKDKLTHAGNYGINVSMDTLEMLYDIKLDYFIRLNFTGFVDIIDALGGIDVVSDYSFSTHGYSYSEGLNSNLSGIQALWFARERHAFAEGDKQRGRDQMKVIEAVIKKAQSSALLNNYDEIFANISKSFQTNMPKKDIKALVKYQLNETPNWKVVSTSVTGTGRSDVTYSVPNSRAYVMDPDENSVNEAKKLLQKIQNNKKIKVKTTTE”: the protein production result is “failed”.

Consider “MEESKELNAVIDVIMLAGTILLKSGSEIHRVEDTMIRIAHSQGIVDCNVLAMPAAIFFSIENTNISRMKRVTSSSYNIEKVCDVNQISRQLVGGQIDLETAFKQLTALQAKPLPYTKLQVTLAATFSAPFFSVMFSGNIYDALGAGVATLFGFAFSLYVEKFIRIPFVTAFAGAFVFGIIAQFWARYTGFPSTADLIIAGAVMPFVPGIALTNAVRDIMTNHINSGMSKMFESLLITLALGAGTSVALVLMN”, for which the protein production result is reported as “failed”.

With “MEETILIVSFLLFLILSNVINRIFPKLPLPFIQLVFGILSGLVFHKSQVHIDPELFLAFVIAPLNFREGQESDIGSFIKYRAIILYLILPTVFLTAIVVGYVAGHLLPVSLPLAACFALGAALGPTDAVAFISIAKRFQFPKRAENILKLEGLLNDASGLVSFQFALTALVTGYFSLAKASLKLALAIMGGFLIGLLFAFLMRLCLTVLEKFDAADVTGALLLELTLPFVAYFVADLLGFSAIIAVVVAGVMQANRLKKVTLFDAQVDRVTSVIWETLNFILNGLVFLIFGRELTRIIGPLLTSNAYSNFDLISIVVLVTCTLFLVRFLAVSCFYAWRSFKYHKSFKKYWREIQLLTFSGVKGSVSIATILLLPKHSVIGELGYSLILFTVGAVTLMSFLTGLLVLPKLAPPLQVKDDYLIRLSILTKVLSVLEEDGKSSENQASFYAVIDNYNSRIRHLILEQESSDIKKDLAELQLMMLSIESDGLEAAYRYGNISIKEYRIYQRYLKYLERQVNRSFVSNITYSLTILMRVIRGIVHEFLTFGQGIRNRKKHFKNRKRLLAEVNRQHLTDLYLSNNDLILETLEDMEGYYNATLIDFLQNERIRDAELIKSGLFVERVIARITPDILNETLRGYYLERRTISEFERDGLISSKESQILRDNVNELESYSLRDSQSSIPYQLLDLKK”, the protein production result is “failed”.

For the sequence “MEETLATPDATRRSLSPSCSATVKSRAAGFERRTKRRLSETNASVREDREEAEEEEDEVKEKIEALQRIIPGGAALGVDALFEETAGYILSLQCQIKTIKVLTSFLQRIDQEDMKFGG”, the protein production result was “failed”.

Regarding “MEEVEEFKYEPKSVKEIFIEMKDTVELMVDLAYASLLFGDKEIAEEVLELEERIDLLNYQLMMHSVLAARNVKEAEQVITILQIANAIEDISNAAGDLAKMVLEGVELHPVIKETILEGEEIIGKIQVYPESVIVGKTLGELDLATNTGVWIIAVRRGKRWIFGPNENFKIRAGDVLIGRGTRTSIDHLKEIARGAIRVIGNERA”, the protein production entry is on record as “not failed”.

For “MEEVKFYVRCYDKIELARMYFPNLSNPVSVAKLRRWMRNCMPLMEELMAGDFHPKMKMFSAREVRLIVRYLGEPDGYVFMHEHADVK”, the protein production entry is “failed”.

As for “MEEVSSEMEVEVQNRQLSDSSPAQNVKKFGLKNSIQTNFGSDYVFQIVPKIDWTAIAVSLSTNTVKLYSPVTGQYYGECKGHSDTVNQIAFSSDSAASPHVLHSCSSDGTIRSWDTRSFQQVSRIDTGNDQEIFSFSYGGAADNLLAGGCKEQVLLWDWRNSKQVACLEESHMDDVTQVHFVPNKPNKLLSASVDGLICLFNTEGDINDDDHLESVINVGTSIGKIGFLGDGYKKLWCLTHIETLSIWNWEDGSCEVNLEKARELASDSWTQDNVDYFVDCHCPGGEDLWVIGGTCAGTVGYFPVNYKQPGSIGTAEAILGGGHIDVVRSVLQMPGEYGGAAGLFGWTGGEDGRLCCWKSDEDATEINRSWTSSELVVKPPRNRKKNRHSPY”, the protein production result is “failed”.

For the sequence “MEFIVDSVDKTMHIGRQLGSLVNKGDILCLTGDLGTGKTHISKGIAEGLGIDEHITSPTFNIVNEYHSGRLTLYHFDVYRVNDPDEIEAIGFDEYIFGDGVSLIEWANYIEELIPEEYIHIKIEKLPDMGENFRKITINGYGDRYNYIKEIKECLEHHHHHH”, the protein production result is “not failed”.

As for “MEFKDYYATLGVEPSAGDAEIKTAYRRLARKYHPDVSKEAGAEDKFKAINEAYEALRDPAKRKAYDQLKAQGFRPGDEFQAPPNYGGGQGFDFEEVFGNGGAGGGFSDFFESLFAGQRGGRPRGPGAGPGAGAGPQARGDTRAKLAVPLEAVYSGDSVRITINGKQLDVRVPKGVQPGQVIRLSGQGNGGGNLLLEIEYAAHPHFEVDGRNILYTLQVMPWQAALGTTISVPTLGGSVELKVPADSDAGRKLRLRGRGLPGTTPGDQIVELEILAPAPTDDAQKKAYRNLAKAFGETVS”, the protein production result is “failed”.

Take “MEFKDYYKIMGVPRDASQDDIKRAYRKLARKYHPDVSKDPQAEARFKELGEAYEVLKDPEKRVAYDRLGTNWKADQEFRPPPDWNAGFEFSQQGFTGADAAQFSEFFESLFGRSFRAEQARRGGETHGGPGGAFFHAPGEDRYAKIMIDLEDSYHGATRTISLQVPEVDAEGHVSTREHKLNVVIPRGIRPRQYIRLAGKGAPGHGQGKAGDLYLEIEFRSHPIYRVDEHDVYLDLPVAPWEAALGATITVPTPEGMVDLKIPADSTTGRKLRLKGRGIPGKIPGDFYVVLRIVPPPATDESDKAFYRSMAEQFKSFNPRAKLGVQA”: the protein production result is listed as “failed”.

With “MEFLDWKFIFIIITFAFIGLICIFKRSKIGLTAASVGIIGSLILWGFFKVSIKVRNFLDGVGLSFKDLLNFLFVVITAIIAFLVIFLFLKAFNNFGSKIRKR”, the protein production entry is recorded as “failed”.

Take “MEFPDLTVEIKGPDVVGVNKLAEYEVHVKNLGGIGVPSTKVRVYINGTLYKNWTVSLGPKEEKVLTFNWTPTQEGMYRINATVDEENTVVELNENNNVATFLEHHHHHH”: the protein production entry is “not failed”.

On to “MEFRFENLLGAPYRGGNAVITKNTQLISPVGNRVSVTDLSKNHSVTLPLETSTNICRLASSPDGTFLLAVDEQNRCLFINLPRRVVLHRITFKDKVGALKFSPNGKFIAVGIGKLVEIWRSPGFRRAVLPFERVRTFANSDDKVVSLEWSLDSDYLLVGSRDLAARLFCVRKLKGVLNKPFLFLGHRDSVVGCFFGVDKMTNKVNRAFTIARDGYIFSWGYTEKDVKMDESEDGHSEPPSPVTPDRADEVMVENGGGVGTELKKRKEYDGKGLESDEEGDDDDEEYMHRGKWVLLRKDGCNQASAKVTACDYHQGLDMVVVGFSNGVFGLYQMPDFICIHLLSISRQKLTTAVFNERGNWLTFGCAKLGQLLVWDWRTETYILKQQGHYFDVNCVTYSPDSQLLATGADDNKVKVWNVMSGTCFITFTEHTNAVTALHFMADNHSLLSASLDGTVRAWDFKRYKNYKTYTTPTPRQFVSLTADPSGDVVCAGTLDSFEIFVWSKKTGQIKDILSGHEAPVHGLMFSPLTQLLASSSWDYTVRLWDVFASKGTVETFRHNHDVLTVAFRPDGKQLASSTLDGQINFWDTIEGVLMYTIEGRRDIAGGRVMTDRRSAANSSSGKCFTTLCYSADGGYILAAGTSRYICMYDIADQVLLRRFQISHNLSLDGVLDFLHSKKMTEAGPIDLIDDDNSDEEGGIDKQSRGNLGYDLPGSRPNRGRPIIRTKSLSIAPTGRSFAAATTEGVLIFSIDDTFIFDPTDLDIDVTPEAVEAAIEEDEVSRALALSMRLNEDSLIKKCIFAVAPADIKAVAISVRQKYLERLMEALVDLLENCPHLEFILHWCQEICKAHGSSIQRNYRTLLPALRSLQKAITRAHQDLADMCSSNEYTLRYLCSVPNNH”, for which the protein production result is on record as “failed”.

Regarding “MEFVLASASPARRRLLQGIGINPIVHVSHFDESQIHHDDPAQLVEALAAAKAKTVAQHRQDALILGCDSVLHVRGEILGKPASPTEAIARWQTMRGHYGLLYTGHALVDQTQNQLLVRHGVTKVYFAAIDDDTIAAYVRSGEPLQCAGCFALEGKGGLFIEKIEGCHSNVIGLSLPLLREMLAHLGYTVQTLWP”, the protein production result is on record as “failed”.
